This is an account of results in patent US20230399400A1 (I MAB BIOPHARMA, published 2023).

The target in test [1] is T1, biotinylated CD47 IgV protein (Acrobiosystems) (human, UniProt Q08722 19-139, biotinylated (site not stated)).
T1 construct: domain: IgV; Bought from Acrobiosystems; also called biotinylated human CD47-IgV domain; Biotinylated CD47 protein
Description: ELISA, biotinylated CD47 protein (monomeric CD47-ECD) coated at 1 µg/mL, antibody titration. The protocol: Biotinylated CD47 protein (Acrobiosystems) was coated at 1 μg/mL in PBS onto microtiter plates for 2 hours at RT. After coating of antigen, the wells were blocked with PBS/0.05% Tween (PBST) with 1% BSA for 1 hour at RT. After washing of the wells with PBST, different concentrations of anti-CD47 antibodies were added to the wells and incubated for 1 hour at RT. For detection of the binding of the antibodies to CD47, the HRP conjugated secondary antibodies against human Fc (Jackson Immuno Research) were added followed by the addition of fluorogenic substrates (Roche). Between all incubation steps, the wells of the plate were washed with PBST three times. Fluorescence was measured in a TECAN Spectrafluor plate reader.
On the technique in general: ELISA stands for enzyme-linked immunosorbent assay.

In test [2] the target is T2, human CD47 (hCD47) expressed on the surface of cells (human, UniProt Q08722 19-323).
T2 construct: whole, on cells; also called CD47+ Raji cells; CD47 on tumor cell lines
The experiment in a line: Flow cytometry on Raji cells endogenously expressing human CD47. The protocol:
Raji cells, which endogenously express human CD47 on the surface, were stained with different concentrations of anti-CD47 antibodies at 4° C. for 30 minutes. Then, the cells were washed with PBS three times, followed by incubation with APC-labeled anti-human Fc specific antibody (Invitrogen) at 4° C. for 30 minutes. Binding was measured using a FACSCanto (Becton-Dickinson).
On the technique in general: A flow cytometer gives signals particle by particle.

The target of test [3] is T3, Recombinant human CD47 IgV-Fc fusion protein (Acrobiosystems) (human, UniProt Q08722 19-139).
T3 construct: domain: IgV; Bought from Acrobiosystems; also called hCD47 IgV-Fc fusion protein; Recombinant CD47-Fc fusion protein
Description: Competition ELISA: CD47-Fc coated, SIRPα-His 1 µg/mL as the blocked ligand, antibody titration. Here is the method:
Recombinant CD47-Fc fusion protein (Acrobiosystems) was coated at 1 μg/ml in PBS onto microtiter plates for 16 hours at 4° C. […] Plates were subsequently washed three times and incubated with an HRP-conjugated anti-His secondary antibody for 1 hour at RT. After washing, the TMB solution was added to each well for 30 min and the reaction was stopped with 2M H₂SO₄, and OD was measured at […].

B1: reference anti-CD47 antibody 2A1 (antibody, V domains shown)
VH: EVQLQQSGAELVRSGASVKLSCTASGFNIKDYYLHWVKQRPEQGLEWIGWIDPDNGDTEFAPKFQGKATMTADTSSNTAYLQLSSLTSEDTAVYYCNAAYGSSSYPMDYWGQGTSVTV
VL: DIKMTQSPSSLYASLGERVTITCKASQDIHRYLSWFQQKPGKSPKILIYRANRLVDGVPSRFSGSGSGQDYSLTISSLEYEDMGIYYCLQYDEFPYTFGGGTKLEMK
A word on the EC50: it is the midpoint of the concentration-response curve. Regarding B1, the EC50 in test [1] came out at 0.25 nM.

B2: anti-CD47 antibody B2B (antibody, human IgG4 S228P, kappa, V domains shown)
VH: EVQLVESGGGLVKPGGSLRLSCAASGLTFERAWMNWVRQAPGKGLEWVGRIKRKTDGETTDYAAPVKGRFSISRDDSKNTLYLQMNSLKTEDTAVYYCAGSNRAFDIWGQGTMVTVSS
VL: DIVMTQSPDSLAVSLGERATINCKSSQSVLYAGNNRNYLAWYQQKPGQPPKLLINQASTRASGVPDRFSGSGSGTEFTLIISSLQAEDVAIYYCQQYYTPPLAFGGGTKLEIKR
notes: also called lemzoparlimab; TJ011133
On to B2, for which the EC50 amounted to 0.12 nM in test [2], 0.09 nM in test [1] and 0.18 nM in test [3].
